Results on two molecules are retold here after patent publication US6608174B1, “Radiolabeled vasoactive intestinal peptide analogs for diagnosis and radiotherapy” (Dabur Research Foundation, priority 2000, dated 2003).

As a reminder, the IC50 is the midpoint of a concentration-inhibition curve. A higher IC50 goes with weaker potency in that assay. What is called Kd is the free concentration of one partner at which half of the binding sites on the other are occupied at equilibrium, for simple one-to-one binding. The low end stands for higher affinity, the high end for lower affinity.

One experiment deals with VIP receptors. The experiment is described as follows: Displacement assay using 125I labeled VIP on human tumor cell lines. Format: binding. The settings on record: for IC50: inhibition of 125I labeled VIP binding. The protocol:
Peptides of the invention were assayed for biological activity in homogeneous competition binding assays using ^125I labeled VIP peptide (SEQ ID NO:1) and in heterogeneous displacement assays using either ^125I labeled VIP (10-28) fragment (Tyr-Thr-Arg-Leu-Arg-Lys-Gln-Met-Ala-Val-Lys-Lys-Tyr-Leu-Asn-Ser-Ile-Leu-Asn-NH2) (SEQ ID NO: 12) or ^125I labeled VIP (SEQ ID NO:1). The assays were performed on a variety of human tumor cell lines.
In the practice of these methods, the peptide was radioiodinated using the iodogen method. Briefly, 5 μg of the peptide in 10 μl of 50 mM PBS (pH 7.5), an appropriate amount of the radioisotope and 50 μg-100 μg iodogen were incubated at room temperature for 15-30 min with occasional mixing. Radioiodinated peptide was purified from unincorporated radioactive iodine by purification on a Sep Pak C18 cartridge, essentially following the same procedure as described for technetium labeling.
Displacement assays were performed at 4-8° C. Briefly, 50,000 cells were plated per well of a 24 well plate and allowed to adhere overnight. Before the assay, the cells were washed twice with ice cold Binding buffer (25 mM HEPES, 10 mM […] MgCl2 and 1% BSA in RPMI 1640 medium). The cells were incubated for 2-3hrs with an appropriate concentration (0.1-10 nM) of ^125I labeled VIP (SEQ ID NO:1) in the presence and absence of the cold ligand (SEQ ID NO: 2) (1 nM-10 μM). The non specific binding was ascertained using 10 μM of VIP. After incubation, the cells were washed thrice with the Binding buffer to remove the unbound peptide. The cells were lysed and counts were measured in a Gamma counter. From a comparison of the extent of binding in the presence or absence of the unlabeled peptide, a concentration was determined corresponding to inhibition of ^125I labeled VIP binding by 50%. Different tumor cell lines were assayed using the above described displacement assay: HT29 (human colorectal adenocarcinoma); PTC (human primary tumor cells adenocarcinoma); KB (human squamous cell carcinoma); 4451 (human squamous cell carcinoma); L132 (human lung carcinoma); A549 (human lung carcinoma); HBL100 (human breast carcinoma) and PA1 (human ovarian carcinoma). Cells were grown in RPMI 1640 supplemented with 10% fetal calf serum, glutamine and antibiotics using standard cell culture techniques (see Animal Cell Culture: A Practical Approach, Freshney, ed, IRL press: Oxford, UK, 1992).

Experiment [1] deals with VIP receptors on human tumor cell lines (human). The experiment is described as follows: displacement of 125I labeled VIP on KB cells.
Experiment [2] has the same target. The experiment is described as follows: displacement of 125I labeled VIP (10-28) fragment on L132 cells.
For experiment [3] the target is unchanged. The experiment is described as follows: displacement of 125I labeled VIP (10-28) fragment on PA1 cells. Background: In a radioligand displacement assay an active substance lowers the binding of a labelled ligand.
For experiment [4] the target is unchanged. Kind of experiment: displacement of 125I labeled VIP (10-28) fragment on HBL 100 cells.
Experiment [5] concerns the target high affinity (nM range), low surface expression receptor on human tumor cells (VIP receptor) (human). Kind of experiment: homologous radioligand competition, 125I-SEQ ID NO:2 on 4451 cells.
The target in experiment [6] is low affinity (µM range), high surface expression receptor on human tumor cells (VIP receptor) (human). The description is as above.
In experiment [7] the target is VIP receptors on human tumor cell lines (human). The experiment is described as follows: displacement of 125I labeled VIP (10-28) fragment on A549 cells.
The target is the same in experiment [8]. The experiment is described as follows: displacement of 125I labeled VIP (10-28) fragment on KB cells.
For experiment [9] the target is unchanged. The experiment is described as follows: displacement of 125I labeled VIP on A549 cells.
Experiment [10] has as its target high affinity (nM range), low surface expression receptor on human tumor cells (VIP receptor) (human). The experiment is described as follows: maximal binding, 125I-SEQ ID NO:2 on HT29 cells.
Experiment [11] has as its target low affinity (µM range), high surface expression receptor on human tumor cells (VIP receptor) (human). Kind of experiment: maximal binding, 125I-SEQ ID NO:2 on HT29 cells.
The target in experiment [12] is high affinity (nM range), low surface expression receptor on human tumor cells (VIP receptor) (human). Kind of experiment: maximal binding, 125I-SEQ ID NO:2 on PTC cells.
Experiment [13] deals with low affinity (µM range), high surface expression receptor on human tumor cells (VIP receptor) (human). The experiment is described as follows: maximal binding, 125I-SEQ ID NO:2 on PTC cells.
For experiment [14], the target named is VIP receptors on human tumor cell lines (human). Kind of experiment: displacement of 125I labeled VIP (10-28) fragment on HT29 cells.
Experiment [15] has the same target. The experiment is described as follows: displacement of 125I labeled VIP on PA1 cells.
Experiment [16] has as its target high affinity (nM range), low surface expression receptor on human tumor cells (VIP receptor) (human). The experiment is described as follows: homologous radioligand competition, 125I-SEQ ID NO:2 on HBL 100 cells.
Experiment [17] deals with low affinity (µM range), high surface expression receptor on human tumor cells (VIP receptor) (human). The description is as above.
Experiment [18] addresses VIP receptors on human tumor cell lines (human). Kind of experiment: displacement of 125I labeled VIP (10-28) fragment on PTC cells.
Experiment [19] addresses high affinity (nM range), low surface expression receptor on human tumor cells (VIP receptor) (human). Kind of experiment: maximal binding, 125I-SEQ ID NO:2 on A549 cells.
Experiment [20] deals with low affinity (µM range), high surface expression receptor on human tumor cells (VIP receptor) (human). The experiment is described as follows: maximal binding, 125I-SEQ ID NO:2 on A549 cells.
The target of experiment [21] is high affinity (nM range), low surface expression receptor on human tumor cells (VIP receptor) (human). The experiment is described as follows: homologous radioligand competition, 125I-SEQ ID NO:2 on KB cells.
For experiment [22], the target named is low affinity (µM range), high surface expression receptor on human tumor cells (VIP receptor) (human). Described as above.
Experiment [23] concerns the target VIP receptors on human tumor cell lines (human). Kind of experiment: displacement of 125I labeled VIP on L132 cells.

Square brackets hold non-standard residues; d marks the D form. Ends that are not written are not given here. dPhe(4-Cl) = N[C@H](Cc1ccc(Cl)cc1)C(=O)O; Aib = CC(C)(N)C(=O)O

Take “His-Ser-Asp-Aib-Val-4-Cl-D-Phe-Thr-Asp-Asn-Tyr-Thr-Arg-Leu-Arg-Lys-Gln-Leu-Ala-Val-Lys-Lys-Tyr-Leu-Asn-Ser-Ile-Leu-Asn-NH2 (HSD[Aib]V[dPhe(4-Cl)]TDNYTRLRKQLAVKKYLNSILN-NH2; N-terminus assumed; SMILES CC[C@H](C)[C@H](NC(=O)[C@H](CO)NC(=O)[C@H](CC(N)=O)NC(=O)[C@H](CC(C)C)NC(=O)[C@H](Cc1ccc(O)cc1)NC(=O)[C@H](CCCCN)NC(=O)[C@H](CCCCN)NC(=O)[C@@H](NC(=O)[C@H](C)NC(=O)[C@H](CC(C)C)NC(=O)[C@H](CCC(N)=O)NC(=O)[C@H](CCCCN)NC(=O)[C@H](CCCNC(=N)N)NC(=O)[C@H](CC(C)C)NC(=O)[C@H](CCCNC(=N)N)NC(=O)[C@@H](NC(=O)[C@H](Cc1ccc(O)cc1)NC(=O)[C@H](CC(N)=O)NC(=O)[C@H](CC(=O)O)NC(=O)[C@@H](NC(=O)[C@@H](Cc1ccc(Cl)cc1)NC(=O)[C@@H](NC(=O)C(C)(C)NC(=O)[C@H](CC(=O)O)NC(=O)[C@H](CO)NC(=O)[C@@H](N)Cc1c[nH]cn1)C(C)C)[C@@H](C)O)[C@@H](C)O)C(C)C)C(=O)N[C@@H](CC(C)C)C(=O)N[C@@H](CC(N)=O)C(N)=O) [SEQ ID NO:2, VIP receptor antagonist, preferred peptide (Xxx = Aib)]”: the IC50 in the experiment on VIP receptors (4451 cells) is 7.1 nM; in the experiment on VIP receptors (A549 cells), 4.3 nM; in the experiment on VIP receptors (HBL 100 cells) it was 5.41 nM; with VIP receptors (HT29 cells) it was 2.78 nM; with VIP receptors (KB cells) it was 6.2 nM; in the experiment on VIP receptors (L132 cells), 6.8 nM. Further, the IC50 in the experiment on VIP receptors (PA1 cells) was 7.6 nM; in the experiment on VIP receptors (PTC cells), 2.53 nM. Moreover, in the experiment with VIP receptors (all cell lines of Table IV), the “displacement of binding of radiolabelled VIP to the cell lines” value is “significantly displace”.

With HSD[Aib]V[dPhe(4-Cl)]TDNYTRLRKQLAVKKYLNSILN-NH2 (also: 125I-labelled form (iodogen) used as tracer), the IC50 in [1] was 6.2 nM; in experiment [2], 0.228 nM; in [3] it was 0.31 nM; in experiment [4], 0.236 nM; in [7], 0.275 nM; in [8], 0.35 nM. Also, the IC50 in [9] is 4.3 nM; in [14] it was 0.22 nM; in experiment [15], 7.6 nM; in experiment [18], 0.132 nM; in experiment [23] it was 6.8 nM. Besides, the Kd in experiment [5] is 4.48 nM; in experiment [6] it was 1910 nM; in [16], 2.13 nM; in experiment [17] it was 1600 nM; in [21], 4.2 nM; in [22], 1840 nM. Also, the Bmax1 was 367 pM in experiment [10], 830 pM in experiment [12] and 540 pM in [19]. The Bmax2 in experiment [11] worked out at 67.2 nM; in experiment [13] it was 96.6 nM; in experiment [20], 48.3 nM.
